These results are taken from paper PMC3185027, “Structural and functional roles of deamidation of N146 and/or truncation of NH2- or COOH-termini in human αB-crystallin” (Molecular Vision, 2011).

The series deals with the molecule itself. Briefly: SEC-MALS; HPLC-coupled multi-angle laser light scattering (Wyatt), 18 angles; samples in 50 mM sodium phosphate pH 7.8, filtered through 0.22 μm; absolute molar mass of homomers.

Positions count from the first letter of the chain named. Names and notes keep the numbering of the source.

B1: αB-CT (COOH-terminal extension deleted αB-crystallin) (domain or fragment, human, UniProt P02511 1-150, looked up)
chain: MDIAIHHPWIRRPFFPFHSPSRLFDQFFGEHLLESDLFPTSTSLSPFYLRPPSFLRAPSWFDTGLSEMRLEKDRFSVNLDVKHFSPEELKVKVLGDVIEVHGKHEERQDEHGFISREFHRKYRIPADVDPLTITSSLSSDGVLTVNGPRK
notes: human αB-crystallin lacking the COOH-terminal extension (residues 151-175); containing residues 1-150; Cloned in pET 100 Directional TOPO; also called COOH-terminally truncated αB; not shown: His6, N-terminal, kept
As for B1, the binding result is “binds”.

B2: wild-type (WT) αB-crystallin (natural protein, human, UniProt P02511 1-175, looked up)
chain: MDIAIHHPWIRRPFFPFHSPSRLFDQFFGEHLLESDLFPTSTSLSPFYLRPPSFLRAPSWFDTGLSEMRLEKDRFSVNLDVKHFSPEELKVKVLGDVIEVHGKHEERQDEHGFISREFHRKYRIPADVDPLTITSSLSSDGVLTVNGPRKQVSGPERTIPITREEKPAVTAAPKK
notes: human αB-crystallin, full-length protein containing all residues from 1 to 175; Cloned in pET 100 Directional TOPO; also called His-tagged WT αB-crystallin; not shown: His6, N-terminal, kept
Turning to B2, the binding result is reported as “binds”.

B3: αB N146D (deamidated αB-crystallin mutant) (natural protein, human, UniProt P02511 1-175, looked up)
chain: B2 chain with N146D
notes: human αB-crystallin, residues 1-175, Asn 146 changed to Asp to mimic deamidation; Cloned in pET 100 Directional TOPO; not shown: His6, N-terminal, kept
On to B3, for which the binding result is on record as “binds”.
